Test [1] deals with A47934 PCP-X di-domain construct with maltose binding protein as N-terminal fusion partner (Streptomyces toyocaensis).
Test [2] has as its target PCP-X construct from teicoplanin biosynthesis with MBP as N-terminal fusion partner (Actinoplanes teichomyceticus) (UniProt Q70AZ6).
For test [3], the target named is hybrid PCP-X construct: A47934 PCP-domain and teicoplanin X-domain, with MBP as N-terminal fusion partner (Streptomyces toyocaensis | Actinoplanes teichomyceticus) (UniProt Q70AZ6).
The target in test [4] is hybrid PCP-X construct: teicoplanin PCP-domain and A47934 X-domain, with MBP as N-terminal fusion partner (Actinoplanes teichomyceticus | Streptomyces toyocaensis).

Chain of UniProt Q70AZ6 (Q70AZ6 entry or part of it): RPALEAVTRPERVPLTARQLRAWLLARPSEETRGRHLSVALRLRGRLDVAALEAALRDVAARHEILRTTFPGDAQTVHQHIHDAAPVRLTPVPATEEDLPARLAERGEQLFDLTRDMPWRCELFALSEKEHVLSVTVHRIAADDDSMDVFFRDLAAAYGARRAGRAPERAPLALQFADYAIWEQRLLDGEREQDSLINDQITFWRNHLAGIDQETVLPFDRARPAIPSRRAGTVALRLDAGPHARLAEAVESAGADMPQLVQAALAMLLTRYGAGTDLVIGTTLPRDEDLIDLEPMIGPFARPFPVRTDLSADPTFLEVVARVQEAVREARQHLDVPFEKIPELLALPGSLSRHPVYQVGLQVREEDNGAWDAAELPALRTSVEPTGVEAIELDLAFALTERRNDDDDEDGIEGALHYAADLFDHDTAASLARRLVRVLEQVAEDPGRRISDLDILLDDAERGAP

In test [1], “StaF, the D-O-E ring forming Oxy enzyme (cytochrome P450) from A47934 biosynthesis” registered a StaF turnover activity (bicyclic product / sum of mono- and bicyclic product, HPLC-MS) on Act7-rac-Hpg7 bound to MBP-PCP-Xsta, with StaH (entry 4) of 25.5%; a StaF turnover activity (bicyclic product / sum of mono- and bicyclic product, HPLC-MS) on Tei7-L-Hpg7 bound to MBP-PCP-Xsta, with StaH (entry 1) of 23.8%. Further, in test [2], the StaF turnover activity (bicyclic product / sum of mono- and bicyclic product, HPLC-MS) on Act7-rac-Hpg7 bound to MBP-PCP-Xtei, with StaH (entry 8) came to 24.9%; the StaF turnover activity (bicyclic product / sum of mono- and bicyclic product, HPLC-MS) on Tei7-L-Hpg7 bound to MBP-PCP-Xtei, with StaH (entry 5) was 5.7%. For the same substance, in test [3], the StaF turnover activity (bicyclic product / sum of mono- and bicyclic product, HPLC-MS) on Act7-rac-Hpg7 bound to MBP-PCPsta-Xtei, with StaH (entry 12) was found to be 7.8%; the StaF turnover activity (bicyclic product / sum of mono- and bicyclic product, HPLC-MS) on Tei7-L-Hpg7 bound to MBP-PCPsta-Xtei, with StaH (entry 9) was 2.9%. In test [4], this substance yielded a StaF turnover activity (bicyclic product / sum of mono- and bicyclic product, HPLC-MS) on Act7-rac-Hpg7 bound to MBP-PCPtei-Xsta, with StaH (entry 16) of 31.5%; a StaF turnover activity (bicyclic product / sum of mono- and bicyclic product, HPLC-MS) on Tei7-L-Hpg7 bound to MBP-PCPtei-Xsta, with StaH (entry 13) of 21.1%.

Source of the values: article PMC5238595.
